Data from article PMC6030200.

Columns and labels:
[1] = molecular target: recombinant human integrin α6β1 (human) (UniProt P23229); experiment: SPR; Biacore T200; integrin α6β4 or α6β1 immobilised by EDC/NHS coupling on CM5 chips (about 16000 RU); seven 2-fold dilutions of PB injected 120 s at 30 µl/minute, 120 s dissociation; 10 mM HEPES, 150 mM NaCl, 1 mM CaCl2, 1 mM MgCl2, 0.05% P20, pH 7.4; 25 °C
[2] = molecular target: HAdV-41 penton base protein, recombinant, soluble (human adenovirus type 41 (HAdV-41)); experiment: gas-phase electrophoretic mobility macromolecular analysis (GEMMA)
[3] = molecular target: HAdV-41 penton base protein, recombinant, soluble (human adenovirus type 41 (HAdV-41)); experiment: negative-stain electron microscopy
[4] = molecular target: recombinant human integrin α6β4 (human) (UniProt P23229); experiment: SPR; Biacore T200; integrin α6β4 or α6β1 immobilised by EDC/NHS coupling on CM5 chips (about 16000 RU); seven 2-fold dilutions of PB injected 120 s at 30 µl/minute, 120 s dissociation; 10 mM HEPES, 150 mM NaCl, 1 mM CaCl2, 1 mM MgCl2, 0.05% P20, pH 7.4; 25 °C
recombinant human integrin α6β4 (human), sequence (P23229 24-1130, chain 1 of 2): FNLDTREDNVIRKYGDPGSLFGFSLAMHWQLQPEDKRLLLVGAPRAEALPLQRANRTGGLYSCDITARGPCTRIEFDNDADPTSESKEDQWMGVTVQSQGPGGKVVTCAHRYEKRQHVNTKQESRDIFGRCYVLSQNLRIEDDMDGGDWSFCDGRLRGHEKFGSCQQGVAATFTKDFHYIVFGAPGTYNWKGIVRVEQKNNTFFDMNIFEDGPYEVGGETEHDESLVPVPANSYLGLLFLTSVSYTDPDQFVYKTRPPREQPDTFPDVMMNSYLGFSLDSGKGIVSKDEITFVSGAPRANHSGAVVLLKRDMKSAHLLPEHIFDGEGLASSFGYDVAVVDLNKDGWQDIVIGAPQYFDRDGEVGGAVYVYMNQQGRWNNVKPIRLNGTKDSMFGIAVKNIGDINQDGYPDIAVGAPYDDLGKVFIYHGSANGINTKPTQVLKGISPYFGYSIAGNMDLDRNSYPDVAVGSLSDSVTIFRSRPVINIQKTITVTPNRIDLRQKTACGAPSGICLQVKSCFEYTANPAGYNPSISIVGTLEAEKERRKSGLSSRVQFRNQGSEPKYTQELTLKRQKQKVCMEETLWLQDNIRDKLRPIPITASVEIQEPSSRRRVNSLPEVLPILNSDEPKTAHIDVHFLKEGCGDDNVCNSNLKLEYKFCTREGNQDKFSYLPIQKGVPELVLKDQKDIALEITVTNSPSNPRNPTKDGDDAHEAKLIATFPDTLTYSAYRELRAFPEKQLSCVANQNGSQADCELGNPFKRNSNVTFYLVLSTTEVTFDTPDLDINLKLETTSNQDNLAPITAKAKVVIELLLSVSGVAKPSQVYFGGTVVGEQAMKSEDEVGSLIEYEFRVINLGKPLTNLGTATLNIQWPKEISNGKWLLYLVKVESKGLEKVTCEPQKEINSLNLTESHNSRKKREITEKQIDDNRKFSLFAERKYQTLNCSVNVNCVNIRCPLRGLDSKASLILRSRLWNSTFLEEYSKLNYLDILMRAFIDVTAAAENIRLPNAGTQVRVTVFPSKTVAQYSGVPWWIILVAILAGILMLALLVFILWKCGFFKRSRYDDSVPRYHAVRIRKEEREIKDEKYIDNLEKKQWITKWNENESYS
recombinant human integrin α6β4 (human), sequence (P16144 28-710, chain 2 of 2, further chain): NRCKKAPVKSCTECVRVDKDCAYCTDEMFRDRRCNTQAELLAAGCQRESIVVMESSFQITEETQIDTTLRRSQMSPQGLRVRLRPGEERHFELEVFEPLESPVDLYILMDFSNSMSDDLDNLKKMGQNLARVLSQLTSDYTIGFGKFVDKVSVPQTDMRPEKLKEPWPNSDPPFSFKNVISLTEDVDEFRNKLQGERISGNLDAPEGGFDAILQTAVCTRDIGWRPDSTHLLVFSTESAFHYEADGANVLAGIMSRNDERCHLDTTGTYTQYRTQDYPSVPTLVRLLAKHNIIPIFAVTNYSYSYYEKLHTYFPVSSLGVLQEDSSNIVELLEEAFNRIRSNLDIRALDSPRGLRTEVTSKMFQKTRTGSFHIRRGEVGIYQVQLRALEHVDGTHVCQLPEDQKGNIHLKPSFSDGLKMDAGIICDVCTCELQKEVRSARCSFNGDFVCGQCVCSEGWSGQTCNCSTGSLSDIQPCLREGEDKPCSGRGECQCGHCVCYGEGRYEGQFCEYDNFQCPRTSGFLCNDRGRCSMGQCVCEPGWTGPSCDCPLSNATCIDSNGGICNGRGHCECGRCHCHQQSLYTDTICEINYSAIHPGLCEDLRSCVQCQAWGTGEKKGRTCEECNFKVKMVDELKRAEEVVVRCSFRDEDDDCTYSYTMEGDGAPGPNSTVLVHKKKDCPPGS

Work on “HAdV-40 penton base protein, recombinant, soluble (natural protein)” yielded a fold lower affinity than to α6β4 [1] of 10 fold and a koff [1] of 0.1 s⁻¹.

Substance “HAdV-41 penton base protein, recombinant, soluble (natural protein)” has a stoichiometry N [2] of 5, a fold lower affinity than to α6β4 [1] of 10 fold and a kon [1] of 10000 M⁻¹ s⁻¹. The stoichiometry N [3] was 5.

“HAdV-5 penton base protein, recombinant, soluble (from UniProt P12538 1-571) (natural protein)” gave a fold lower affinity than 40PB and 41PB [4] of 3 fold and a fold lower affinity than 40PB and 41PB [1] of 3 fold.
